Source: paper PMC12748766, “Structural basis for human chondroitin sulfate chain polymerization” (Nature Communications, 2025)

Key:
Assay in all cases: mass photometry; Refeyn OneMP; purified complexes diluted in 20 mM MES pH 6.5, 150 mM NaCl to around 25 nM
Conditions in all cases: both partners purified
[1] = target: T1, CHSY3^D718N/D720N, secreted construct aa157-aa882 (human, UniProt Q70JA7 157-882, D718N | D720N)
T1 construct: CHSY3, human, UniProt Q70JA7, residues 157-882, mutations in the DxD motif of the C-terminal GT domain; source: Freestyle 293-F cells, co-transfected with CHPF, secreted; purified by the same protocol as the wild-type complexes; not shown: SUMO, N-terminal, cleaved; His6, N-terminal, cleaved
T1 sequence (looked up): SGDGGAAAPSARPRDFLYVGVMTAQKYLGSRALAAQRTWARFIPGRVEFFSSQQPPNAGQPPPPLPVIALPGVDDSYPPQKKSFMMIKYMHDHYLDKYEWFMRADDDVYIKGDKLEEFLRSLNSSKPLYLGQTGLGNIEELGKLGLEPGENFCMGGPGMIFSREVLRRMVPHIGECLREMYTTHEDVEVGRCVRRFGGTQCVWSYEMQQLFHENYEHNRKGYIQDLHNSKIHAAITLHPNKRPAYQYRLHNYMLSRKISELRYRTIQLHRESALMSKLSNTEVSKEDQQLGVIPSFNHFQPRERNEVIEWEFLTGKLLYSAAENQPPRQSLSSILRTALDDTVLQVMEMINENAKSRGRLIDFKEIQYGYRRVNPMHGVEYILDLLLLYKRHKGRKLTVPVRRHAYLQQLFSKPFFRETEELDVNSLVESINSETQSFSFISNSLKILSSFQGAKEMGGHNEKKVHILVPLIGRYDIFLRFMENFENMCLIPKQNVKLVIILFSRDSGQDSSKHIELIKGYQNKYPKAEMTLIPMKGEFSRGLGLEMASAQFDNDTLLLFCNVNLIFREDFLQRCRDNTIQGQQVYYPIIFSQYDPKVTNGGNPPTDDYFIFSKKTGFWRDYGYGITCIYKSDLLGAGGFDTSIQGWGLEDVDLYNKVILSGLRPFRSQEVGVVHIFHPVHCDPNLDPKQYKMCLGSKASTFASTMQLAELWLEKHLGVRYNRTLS

[2] = target: T2, Chondroitin Sulfate Synthase-3 (CHSY3), secreted N-terminally truncated construct aa157-aa882 (human, UniProt Q70JA7 157-882)
T2 construct: CHSY3, human, UniProt Q70JA7, residues 157-882 (membrane-spanning helix removed); Construct in pHR-CMV-TetO2 with an N-terminal chicken RPTP sigma signal peptide, SUMO, 6x His and a 3C site; no cleavage site before the C-terminal Avi tag; source: Freestyle 293-F cells, co-transfected, secreted; purified from the supernatant (HisTrap, 3C protease, second HisTrap); not shown: SUMO, N-terminal, …
T2 sequence (looked up): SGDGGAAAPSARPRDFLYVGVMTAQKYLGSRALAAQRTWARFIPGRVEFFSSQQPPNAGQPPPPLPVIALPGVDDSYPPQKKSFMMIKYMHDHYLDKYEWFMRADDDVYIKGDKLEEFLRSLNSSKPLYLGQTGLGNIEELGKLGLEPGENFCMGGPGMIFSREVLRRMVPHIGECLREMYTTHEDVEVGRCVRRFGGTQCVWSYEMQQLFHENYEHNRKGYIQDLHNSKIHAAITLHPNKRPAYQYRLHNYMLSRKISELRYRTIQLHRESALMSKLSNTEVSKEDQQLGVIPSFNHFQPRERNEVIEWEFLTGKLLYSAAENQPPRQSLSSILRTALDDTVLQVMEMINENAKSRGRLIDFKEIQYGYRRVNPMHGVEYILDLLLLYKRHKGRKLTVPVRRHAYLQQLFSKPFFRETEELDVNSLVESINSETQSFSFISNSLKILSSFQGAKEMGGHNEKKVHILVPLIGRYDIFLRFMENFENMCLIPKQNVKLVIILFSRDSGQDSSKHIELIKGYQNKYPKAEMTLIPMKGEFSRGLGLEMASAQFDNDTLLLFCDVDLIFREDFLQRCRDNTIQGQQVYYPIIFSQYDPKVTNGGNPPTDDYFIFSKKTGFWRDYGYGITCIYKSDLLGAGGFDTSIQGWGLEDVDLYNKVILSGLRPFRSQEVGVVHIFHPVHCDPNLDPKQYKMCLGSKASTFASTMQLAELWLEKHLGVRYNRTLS

[3] = target: T3, CHSY3^H831A, secreted construct aa157-aa882 (human, UniProt Q70JA7 157-882, H831A)
T3 construct: CHSY3, human, UniProt Q70JA7, residues 157-882, mutation in the C-terminal GT domain; source: Freestyle 293-F cells, co-transfected with CHPF, secreted; purified by the same protocol as the wild-type complexes; not shown: SUMO, N-terminal, cleaved; His6, N-terminal, cleaved
T3 sequence (looked up): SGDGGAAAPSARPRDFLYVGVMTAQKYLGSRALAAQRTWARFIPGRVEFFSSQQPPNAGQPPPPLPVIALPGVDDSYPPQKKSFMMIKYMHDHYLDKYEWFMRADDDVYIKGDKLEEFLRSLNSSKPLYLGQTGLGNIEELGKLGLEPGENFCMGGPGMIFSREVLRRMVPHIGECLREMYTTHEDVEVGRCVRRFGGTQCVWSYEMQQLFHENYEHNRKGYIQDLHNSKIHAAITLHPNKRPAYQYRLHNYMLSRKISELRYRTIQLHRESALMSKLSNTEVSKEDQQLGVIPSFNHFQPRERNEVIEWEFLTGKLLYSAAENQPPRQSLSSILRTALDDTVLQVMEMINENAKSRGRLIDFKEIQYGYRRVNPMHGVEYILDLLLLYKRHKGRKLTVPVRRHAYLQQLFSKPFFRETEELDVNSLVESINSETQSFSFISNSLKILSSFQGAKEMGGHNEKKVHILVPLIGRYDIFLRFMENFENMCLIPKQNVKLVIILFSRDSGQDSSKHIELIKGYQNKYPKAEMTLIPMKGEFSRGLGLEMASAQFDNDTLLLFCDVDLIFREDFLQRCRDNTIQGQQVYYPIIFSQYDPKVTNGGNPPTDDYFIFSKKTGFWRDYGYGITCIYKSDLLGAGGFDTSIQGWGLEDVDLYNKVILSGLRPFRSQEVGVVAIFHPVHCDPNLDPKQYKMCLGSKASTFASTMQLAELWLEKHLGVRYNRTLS

Measured: binding result

B1: Chondroitin Polymerizing Factor (CHPF), secreted N-terminally truncated construct aa81-aa775 (domain or fragment, human, UniProt Q8IZ52 81-775, looked up)
chain: GENWEPRVLPYHPAQPGQAAKKAVRTRYISTELGIRQRLLVAVLTSQTTLPTLGVAVNRTLGHRLERVVFLTGARGRRAPPGMAVVTLGEERPIGHLHLALRHLLEQHGDDFDWFFLVPDTTYTEAHGLARLTGHLSLASAAHLYLGRPQDFIGGEPTPGRYCHGGFGVLLSRMLLQQLRPHLEGCRNDIVSARPDEWLGRCILDATGVGCTGDHEGVHYSHLELSPGEPVQEGDPHFRSALTAHPVRDPVHMYQLHKAFARAELERTYQEIQELQWEIQNTSHLAVDGDQAAAWPVGIPAPSRPASRFEVLRWDYFTEQHAFSCADGSPRCPLRGADRADVADVLGTALEELNRRYHPALRLQKQQLVNGYRRFDPARGMEYTLDLQLEALTPQGGRRPLTRRVQLLRPLSRVEILPVPYVTEASRLTVLLPLAAAERDLAPGFLEAFATAALEPGDAAAALTLLLLYEPRQAQRVAHADVFAPVKAHVAELERRFPGARVPWLSVQTAAPSPLRLMDLLSKKHPLDTLFLLAGPDTVLTPDFLNRCRMHAISGWQAFFPMHFQAFHPAVAPPQGPGPPELGRDTGRFDRQAASEACFYNSDYVAARGRLAAASEQEEELLESLDVYELFLHFSSLHVLRAVEPALLQRYRAQTCSARLSEDLYHRCLQSVLEGLGSRTQLAMLLFEQEQGNST
notes: CHPF, human, UniProt Q8IZ52, residues 81-775 (membrane-spanning helix removed); Construct in pHR-CMV-TetO2 with an N-terminal chicken RPTP sigma signal peptide, SUMO, 6x His and a 3C site; a second 3C site stands before the C-terminal twin streptavidin tag; also called Chondroitin sulfate synthase 2; source: Freestyle 293-F cells, co-transfected, secreted; purified from the supernatant (HisTrap, …)
binds: all assays above
